Source: paper PMC3660329, “Molecular Identification of Carnosine N-Methyltransferase as Chicken Histamine N-Methyltransferase-Like Protein (HNMT-Like)” (PLoS ONE, 2013)

B1: chicken HNMT-like protein (recombinant carnosine N-methyltransferase) (Gallus gallus) (protein)
chain: MEPTPEMKRNRLPSMNFEAEILADPHDNSELYVIPSMRSLTAEEYVEAFQSFLDHSTEHQCMDEFNKEVMPHIMAGLGNGKSTINILGVGSGTGEQDLKMIQILQAAHPGVLINNEIIEPNPQHVAAYKELVNRAPDLQGVSFTWHQLTSSEYEQQVKEKNTHKKFDFIHMIQMLYRVEDIPNTIKFFHSCLNHQGKLLIIILSDSSGWASLWKKYRHCLPSTDSGHYITSDSITAVLRKLGIKYHVYEFPSGWDITECFIEGDPAGGHMMDFLTGTKNFLGTAPAALRSRLQEALCQPECSSRKDGRVIFCNNLSMIVAES
notes: full-length ORF from pectoral muscle cDNA, C-terminal His6 tag (pEF6/Myc-His A), expressed in COS-7, HisTrap purified to homogeneity, monomer about 38 kDa (36 kDa without tag)
B2: carnosine N-methyltransferase (native, chicken pectoral muscle) (Gallus gallus) (protein)
chain: MEPTPEMKRNRLPSMNFEAEILADPHDNSELYVIPSMRSLTAEEYVEAFQSFLDHSTEHQCMDEFNKEVMPHIMAGLGNGKSTINILGVGSGTGEQDLKMIQILQAAHPGVLINNEIIEPNPQHVAAYKELVNRAPDLQGVSFTWHQLTSSEYEQQVKEKNTHKKFDFIHMIQMLYRVEDIPNTIKFFHSCLNHQGKLLIIILSDSSGWASLWKKYRHCLPSTDSGHYITSDSITAVLRKLGIKYHVYEFPSGWDITECFIEGDPAGGHMMDFLTGTKNFLGTAPAALRSRLQEALCQPECSSRKDGRVIFCNNLSMIVAES
notes: about 45 kDa by gel filtration

Tests used:
Assay in all cases: radiochemical methyl transfer from (3H)SAM, nonlinear regression
Format in all cases: biochemical, Gallus gallus
[1] = substrate: NCCC(=O)N[C@@H](Cc1cnc[nH]1)C(=O)O; conditions: non-saturating 1 µM SAM, 1 mM MgCl2, pH 7.5, 37 °C
Source text: (§1) radiochemical methyl transfer from (3H)SAM, nonlinear regression on chicken HNMT-like protein (recombinant carnosine N-methyltransferase)

[2] = substrate: C[S+](CC[C@H](N)C(=O)O)C[C@H]1O[C@@H](n2cnc3c(N)ncnc32)[C@H](O)[C@@H]1O; conditions: 20 mM carnosine, variable (1H+3H)SAM, 1 mM MgCl2, pH 7.5, 37 °C, labelled compound
Source text: as §1

[3] = substrate: NCCC(=O)N[C@@H](Cc1cnc[nH]1)C(=O)O; conditions: non-saturating 1 µM SAM, 1 mM MgCl2, pH 7.5, 37 °C; remark: listed apart in the source
Source text: (§2) radiochemical methyl transfer from (3H)SAM, nonlinear regression on carnosine N-methyltransferase (native, chicken pectoral muscle)

[4] = substrate: C[S+](CC[C@H](N)C(=O)O)C[C@H]1O[C@@H](n2cnc3c(N)ncnc32)[C@H](O)[C@@H]1O; conditions: 20 mM carnosine, variable (1H+3H)SAM, 1 mM MgCl2, pH 7.5, 37 °C, labelled compound; remark: listed apart in the source
Source text: as §2

Row | Protein | Km [1] | Vmax [1] | kcat [1] | Km [2] | Vmax [2] | kcat [2] | Km [3] | Vmax [3] | kcat [3] | Km [4] | Vmax [4] | kcat [4]
1 | B1 | 1628 ± 71 µM | 0.0519 µmol/min/mg | 0.034 ± 0.001 s⁻¹ | 14 ± 1 µM | 0.786 µmol/min/mg | 0.519 ± 0.013 s⁻¹ |  |  |  |  |  | 
2 | B2 |  |  |  |  |  |  | 1646 ± 157 µM | 0.0138 µmol/min/mg | 0.008 s⁻¹ | 11 ± 1 µM | 0.153 µmol/min/mg | 0.093 ± 0.002 s⁻¹
